# Test results from patent publication US20140274782A1, “AFFINITY REAGENTS AND METHODS FOR DETECTION, PURIFICATION, AND PROTEOMIC ANALYSIS OF METHYLATED PROTEINS” (The Board of Trustees of the Leland Stanford Junior …, priority 2013, published 2014).
# Tests used:
# 3×MBT domain of L3MBTL1 = assay: Triple SILAC pull-down, 3xMBT/3xMBTD355N ratio (cytoplasmic, nuclear and chromatin fractions of 293T cells); assay type: binding, human; details: for 3xMBT/D355N UNC Heavy: experiment with UNC0638 in heavy SILAC media; for 3xMBT/D355N UNC Light: experiment with UNC0638 in light SILAC media;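 on all read-outs here: proteins quantified with MaxQuant, requiring at least two unique peptides and quantification in both label directions, normalized to the mean of proteins from a digested loading control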
# G9a and GLP = target: T1, G9a and GLP (Homo sapiens, UniProt Q96KQ7+Q9H9B1); assay: Triple SILAC pull-down after UNC0638 treatment of 293T cells, DMSO/UNC0638 ratio of protein captured by 3×MBT; assay type: cell-based; details: for Relative to UNC0638 UNC Heavy: UNC0638 in heavy SILAC media; for Relative to UNC0638 UNC Light: UNC0638 in light SILAC media; for Relative to UNC0638 Average: average of UNC Light and UNC Heavy experiments;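 on all read-outs here: mass spectrometry (Q-Exactive) SILAC quantitation, DMSO/UNC0638 ratio computed after subtracting 3×MBTD355N mutant pull-down background, only proteins with at least twofold 3×MBT over mutant signal considered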
# T1 construct: endogenous in cells; host or cells: HEK 293T
# T1 sequence (Q96KQ7 2-1210 limits assumed): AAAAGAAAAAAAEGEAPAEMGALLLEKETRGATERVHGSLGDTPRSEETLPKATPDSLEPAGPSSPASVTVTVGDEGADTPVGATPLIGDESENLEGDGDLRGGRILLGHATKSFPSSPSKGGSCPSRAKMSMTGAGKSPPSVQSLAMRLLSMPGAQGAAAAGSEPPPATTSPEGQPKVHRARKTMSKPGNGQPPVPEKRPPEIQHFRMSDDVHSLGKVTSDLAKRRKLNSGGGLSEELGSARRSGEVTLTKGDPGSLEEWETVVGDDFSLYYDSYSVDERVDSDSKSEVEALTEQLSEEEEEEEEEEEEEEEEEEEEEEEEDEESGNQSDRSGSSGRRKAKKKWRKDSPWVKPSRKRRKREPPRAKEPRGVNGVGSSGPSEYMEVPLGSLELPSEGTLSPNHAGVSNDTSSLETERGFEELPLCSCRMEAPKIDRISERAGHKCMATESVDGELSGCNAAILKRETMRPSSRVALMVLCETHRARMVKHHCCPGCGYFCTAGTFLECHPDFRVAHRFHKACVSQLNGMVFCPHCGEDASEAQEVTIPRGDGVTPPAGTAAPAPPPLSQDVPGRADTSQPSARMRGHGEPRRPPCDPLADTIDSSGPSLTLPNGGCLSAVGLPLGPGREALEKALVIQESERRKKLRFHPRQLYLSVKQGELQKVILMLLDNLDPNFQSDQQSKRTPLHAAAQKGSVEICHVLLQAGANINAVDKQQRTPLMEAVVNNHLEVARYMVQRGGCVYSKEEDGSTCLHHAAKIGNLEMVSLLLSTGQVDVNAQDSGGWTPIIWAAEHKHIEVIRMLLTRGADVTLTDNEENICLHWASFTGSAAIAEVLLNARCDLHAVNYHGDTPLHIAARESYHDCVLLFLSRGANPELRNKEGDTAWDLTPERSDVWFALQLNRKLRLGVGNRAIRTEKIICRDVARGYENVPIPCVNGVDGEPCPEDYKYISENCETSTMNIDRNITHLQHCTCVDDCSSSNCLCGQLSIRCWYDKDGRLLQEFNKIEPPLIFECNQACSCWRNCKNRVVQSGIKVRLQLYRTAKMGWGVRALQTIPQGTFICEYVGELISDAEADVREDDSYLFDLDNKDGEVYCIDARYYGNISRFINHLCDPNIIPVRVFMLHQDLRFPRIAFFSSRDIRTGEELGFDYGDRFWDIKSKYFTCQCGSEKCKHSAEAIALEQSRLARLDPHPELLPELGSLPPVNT
# T1 sequence (Q9H9B1 2-1298 limits assumed): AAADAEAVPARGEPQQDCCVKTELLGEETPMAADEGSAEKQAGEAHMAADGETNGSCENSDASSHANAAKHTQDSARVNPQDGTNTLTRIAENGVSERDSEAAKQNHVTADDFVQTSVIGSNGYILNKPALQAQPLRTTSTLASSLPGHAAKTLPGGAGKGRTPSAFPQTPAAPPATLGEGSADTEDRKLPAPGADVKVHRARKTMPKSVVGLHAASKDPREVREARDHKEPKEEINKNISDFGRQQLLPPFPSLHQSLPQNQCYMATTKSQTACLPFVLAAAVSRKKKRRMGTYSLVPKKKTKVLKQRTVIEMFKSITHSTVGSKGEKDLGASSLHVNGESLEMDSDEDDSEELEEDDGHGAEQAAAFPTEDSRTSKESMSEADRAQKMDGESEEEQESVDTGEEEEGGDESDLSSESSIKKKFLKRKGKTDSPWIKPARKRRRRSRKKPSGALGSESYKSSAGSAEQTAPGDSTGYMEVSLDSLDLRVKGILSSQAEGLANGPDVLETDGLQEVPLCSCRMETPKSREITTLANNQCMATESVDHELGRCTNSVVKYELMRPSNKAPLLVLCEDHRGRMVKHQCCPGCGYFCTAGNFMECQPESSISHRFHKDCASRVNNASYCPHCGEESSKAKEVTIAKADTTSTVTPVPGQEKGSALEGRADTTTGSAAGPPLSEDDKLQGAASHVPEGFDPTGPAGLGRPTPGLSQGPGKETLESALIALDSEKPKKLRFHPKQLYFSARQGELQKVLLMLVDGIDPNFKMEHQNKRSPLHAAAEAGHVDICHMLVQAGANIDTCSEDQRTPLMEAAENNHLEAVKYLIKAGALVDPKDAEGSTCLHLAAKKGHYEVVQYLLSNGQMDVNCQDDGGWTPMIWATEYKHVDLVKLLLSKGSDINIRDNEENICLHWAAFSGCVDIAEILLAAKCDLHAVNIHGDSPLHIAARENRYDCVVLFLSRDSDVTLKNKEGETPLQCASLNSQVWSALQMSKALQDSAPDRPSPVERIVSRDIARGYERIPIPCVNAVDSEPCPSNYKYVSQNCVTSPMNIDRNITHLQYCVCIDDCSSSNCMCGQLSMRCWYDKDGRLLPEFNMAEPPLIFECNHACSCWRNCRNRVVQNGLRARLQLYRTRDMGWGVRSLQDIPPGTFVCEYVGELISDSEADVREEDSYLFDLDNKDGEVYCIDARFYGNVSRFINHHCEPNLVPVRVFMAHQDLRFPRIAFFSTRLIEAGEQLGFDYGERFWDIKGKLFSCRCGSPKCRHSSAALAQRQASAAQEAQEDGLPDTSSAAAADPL
# [1] = SILAC ratio, pull-down 3xMBT vs 3xMBTD355N
# [2] = SILAC ratio DMSO/UNC0638 of protein pulled down with 3xMBT
# [3] = SILAC ratio 3xMBT vs 3xMBTD355N pull-down, 293T cells, all values in log base 2
# [4] = SILAC ratio DMSO relative to UNC0638, pull-down with 3xMBT, all values in log base 2
Substance,3xMBT/D355N UNC Heavy (3×MBT domain of L3MBTL1; [1]) [log base 2],3xMBT/D355N UNC Light (3×MBT domain of L3MBTL1; [1]) [log base 2],Relative to UNC0638 UNC Heavy (G9a and GLP; [2]) [log base 2],Relative to UNC0638 UNC Light (G9a and GLP; [2]) [log base 2],Relative to UNC0638 Average (G9a and GLP) [log base 2],3xMBT/D355N UNC Heavy (3×MBT domain of L3MBTL1; [3]) [log base 2],3xMBT/D355N UNC Light (3×MBT domain of L3MBTL1; [3]) [log base 2],Relative to UNC0638 UNC Heavy (G9a and GLP; [4]) [log base 2],Relative to UNC0638 UNC Light (G9a and GLP; [4]) [log base 2],Relative to UNC0638 Average (G9a and GLP; all values in log base 2) [log base 2],"Protein Ratios 3xMBT/D355N (3×MBT domain of L3MBTL1; SILAC ratio, pull-down by 3xMBT vs 3xMBTD355N, 293T cells)","Protein Ratios DMSO/UNC0638 (G9a and GLP; SILAC ratio of protein captured by 3xMBT, 293T cells treated 24 hours with UNC0638 at 2.5 μM or DMSO)"
HNRNPAB,4.00,4.21,0.09,0.32,0.20,–,–,–,–,–,–,–
CD3EAP,–,–,–,–,–,2.30,1.86,−0.02,0.01,0.00,–,–
DDX6,3.18,3.05,0.14,0.22,0.18,–,–,–,–,–,–,–
CAMK2D,1.96,2.82,0.26,0.27,0.27,–,–,–,–,–,–,–
SWI/SNF-related matrix-associated actin-dependent regulator of chromatin subfamily A member 5,–,–,–,–,–,–,–,–,–,–,5.8,1.3
XRCC5,2.15,2.80,0.14,0.17,0.15,–,–,–,–,–,–,–
HSPA8,2.05,1.48,0.28,0.06,0.17,–,–,–,–,–,–,–
ANXA2,–,–,–,–,–,2.86,2.78,0.38,−0.31,0.04,–,–
PPP1CA,–,–,–,–,–,1.51,0.12,1.15,−1.83,−0.34,–,–
STRAP,–,–,–,–,–,1.61,1.80,0.24,−0.15,0.05,–,–
EIF4A1,3.59,3.68,0.30,0.05,0.18,–,–,–,–,–,–,–
PSME3,1.70,1.89,0.62,−0.01,0.31,–,–,–,–,–,–,–
NONO,3.18,3.75,0.17,0.16,0.17,–,–,–,–,–,–,–
SRSF3,2.63,2.55,0.25,0.23,0.24,–,–,–,–,–,–,–
NBN,–,–,–,–,–,1.68,1.52,−0.14,−0.46,−0.30,–,–
TARDBP,2.44,2.40,0.18,0.21,0.20,–,–,–,–,–,–,–
DNMT1,1.70,2.02,0.46,−0.19,0.13,–,–,–,–,–,–,–
